Data published in US20220242939A1 (BIOARCTIC, published 2022).
Where two headings read alike, the source gives them in different places. Non-standard residues stand in square brackets, D forms with d. No end group written: not given here. Ahx = NCCCCCC(=O)O

B1: 15F8, monoclonal anti-L198 antibody (antibody, IgG2c, V domains shown)
VH: EVKLEESGGGLVHPGGSMKLSCVGSGFTFSNYWMNWVRQSPEKGLEWVAQIKLRSDNYATHYAESVKGKFTISRDDAKSSVYLQMDNLRAEDTGIYYCSHHYLDSGGYFDVWGTGTSVTVSS
VL: DIVMTQSQKFMSTSVGDRVSVTCKASQNVGINVAWYQDKPGQSPKGLILSASYRYSGVPDRFTGSGSGTDFTLTISNVQSEDLAEYFCQQYNSYPYTFGGGTKLEIK
B2: 36A12, monoclonal anti-A199 antibody (antibody, IgG1, V domains shown)
VH: EVKLEESGGGLVQPGGSMKLSCVASGFTFSNYWMNWVRQSPEKGLEWIGEIKLKSNNYGTHYAESVKGRFTISRDDSKSSVYLQMNNLRAEDTGIYYCTRDTEVVAGAHWGQGTLVTVSA
VL: NIMMTQSPSSLAVSAGEKVTMSCKSSQSVLYNSNQKNYLAWYQQKPGQSPKLLIYWASTRDSGVPDRFTGSGSGTDFTLTISSVRAEDLAVYFCQQYLSSLTFGAGTKLELK
B3: 38G9, monoclonal anti-A199 antibody (antibody, IgG1, V domains shown)
VH: EVKLEESGGGLVQPGGSMKLSCVASGFTFSNYWMNWVRQSPEKGLEWVGEIKLKSNNYGTHYAESVKGRFTISRDDSKSSVYLQMNNLRAEDTGIYYCTRDTEVVAGAHWGQGTLVTVSA
VL: NIMMTQSPSSLAVSAGEKVTMSCKSSQSVLYSSNQKNYLAWYQQKPGQSPKLLIYWASTRESGVPDRFTGSGSGTDFTLTISSVQAEDLAVYFCQQYLSSLTFGAGTKLELK

How the values were obtained:
[1] = molecular target: T1, G200 N-terminal neo-epitope peptide GQPLQE-Acp-C (SEQ ID NO:50) conjugated to BSA (human, not fully specified (residue 8); printed as GQPLQE-Acp-C; also: C-terminal Cys conjugated to BSA carrier); test: direct ELISA; proteins coated at 0.1 uM, BSA peptides at 1 ug/ml; antibody in 3-fold dilutions from 3000 ng/ml; blank reduced OD 450 nm
T1 construct: also called G200-BSA peptide; G200-peptide
T1 peptide: GQPLQE[Ahx]C
Protocol: (§1) Selectivity evaluation of purified monoclonal antibodies by direct ELISA: The direct ELISA described below was used to evaluate the binding selectivity of the purified monoclonal antibodies produced in Example 14.
(§2) The screening was performed according to standard ELISA protocols. Briefly, 1 μg/ml solutions of BSA-conjugated neo-epitope peptides and negative control peptide, and 0.1 μM recombinant C-terminal ApoE fragment and full-length ApoE (Abcam, cat. no. ab50243) were prepared by dilution in PBS. 50 μl/well were added to an ELISA half-area 96 well microtiter plate, and the plate was sealed with adhesive sealer and incubated over night at 4° C. After discarding the solution, the plates were blocked with 150 μl/well of protein-free blocking solution (Pierce) for 1 h at room temperature with shake (600-900 rpm). The plates were washed four times with washing buffer containing 0.28 mM NaH₂PO₄, 2.5 mM Na₂HPO₄, 150 mM NaCl, 0.1% TWEEN®-20 and 0.0075% Kathon CG. Purified monoclonal antibodies of interest were 3-fold serially diluted with a starting dilution at 3 μg/ml (mixed 1:2 with dilution buffer (PBS with 0.1% BSA and 0.05% TWEEN®-20)). An anti-ApoE C-terminal antibody was used as a reference antibody (ApoE E-8 mouse monoclonal, Santa Cruz Biotechnology, cat. no. sc-393302). 50 μl/well were added into the ELISA plates and incubated for 2 h at room temperature with shake (600-900 rpm). The plates were washed four times as described previously. […] After another wash (as described previously), 50 μl/well of K-Blue® aqueous substrate (Neogen) were added, and the reaction was stopped after 5-15 min with 50 μl/well of 0.5 M H2504. The optical density at 450 nm was read using an ELISA reader (Tecan).

[2] = molecular target: T2, recombinant full-length ApoE4 (aa 1-299; SEQ ID NO:45; Abcam cat. no. ab50243) (human, UniProt P02649 19-317); test: as above
T2 construct: Bought protein; also called recombinant ApoE4 full-length protein
Protocol: as §1, §2

[3] = molecular target: T3, L198 N-terminal neo-epitope peptide LAGQPLQE-Acp-C (SEQ ID NO:54) conjugated to BSA (human, not fully specified (residue 10); printed as LAGQPLQE-Acp-C; also: C-terminal Cys conjugated to BSA carrier); test: direct ELISA after limiting dilution
T3 construct: BSA carrier
T3 peptide: LAGQPLQE[Ahx]C

[4] = molecular target: T4, full-length ApoE in human brain extract from Alzheimer's disease patients (human, UniProt P02649 19-317); test: Western blot of AD brain RIPA 2% SDS extract; monoclonal antibody at 2 ug/ml as primary antibody
T4 construct: mature; Endogenous protein on Western blot or in solution (IP); also called ApoE full-length protein

[5] = molecular target: T5, recombinant C-terminal ApoE fragment L198-HIS (ApoE-L198-H299-10xHIS) (human, UniProt P02649 216-317); test: direct ELISA, L198-HIS coated at 0.1 µM
T5 construct: also called L198-HIS fragment
Protocol: as §1, §2

[6] = molecular target: T6, L198 N-terminal neo-epitope peptide LAGQPL-Acp-C (SEQ ID NO:52) conjugated to BSA (human, not fully specified (residue 8); printed as LAGQPL-Acp-C; also: C-terminal Cys conjugated to BSA carrier); test: direct ELISA, L198-BSA peptide coated at 1 µg/ml
T6 construct: BSA carrier; also called L198-BSA peptide
T6 peptide: LAGQPL[Ahx]C
Protocol: as §1, §2

[7] = molecular target: T4, full-length ApoE in human brain extract …; test: Western blot of AD brain RIPA 2% SDS extract; anti-A199 antibody at 2 ug/ml as primary antibody
Protocol: RIPA 2% SDS brain extract containing approximately 60 μg total protein was mixed with 2×Laemmli sample buffer, boiled for 5 min at 95° C. and loaded onto SDS-PAGE gels (Bolt™ 12% Bis-Tris Plus 10 well, Thermo Fisher, cat. no. NW00120BOX). Gels were run for 30-40 min at 180 V, after which proteins were transferred from the gels onto nitrocellulose membranes using the Trans-Blot® Turbo™ system (Bio-Rad). […] Membranes were washed and incubated for 1 h at room temperature with the detection antibody anti-mouse-800CW (LI-COR, cat. no. 925-32210) diluted 1:25000 in Intercept® PBS Blocking Buffer (LI-COR) with 0.1% TWEEN®-20. Membranes were washed and images acquired using Odyssey® FC (LI-COR).

[8] = molecular target: T7, A199 N-terminal neo-epitope peptide AGQPLQE-Acp-C (SEQ ID NO:55) conjugated to BSA (human, not fully specified (residue 9); printed as AGQPLQE-Acp-C; also: C-terminal Cys conjugated to BSA carrier); test: direct ELISA after limiting dilution
T7 construct: BSA carrier
T7 peptide: AGQPLQE[Ahx]C

[9] = molecular target: T8, A199 N-terminal neo-epitope peptide AGQPLQ-Acp-C (SEQ ID NO:51) conjugated to BSA (human, not fully specified (residue 8); printed as AGQPLQ-Acp-C; also: C-terminal Cys conjugated to BSA carrier); test: direct ELISA, A199-BSA peptide coated at 1 µg/ml
T8 construct: BSA carrier; also called A199-BSA peptide
T8 peptide: AGQPLQ[Ahx]C
Protocol: (§3) Selectivity evaluation of purified monoclonal antibodies by direct ELISA: The direct ELISA described below was used to evaluate the binding selectivity of the purified monoclonal antibodies produced in Example 17.
as §2, with “H₂SO₄.” for “H2504.”

[10] = molecular target: T9, recombinant C-terminal ApoE fragment A199-HIS (ApoE-A199-H299-10xHIS) (human, UniProt P02649 217-317); test: direct ELISA, A199-HIS coated at 0.1 µM
T9 construct: also called A199-HIS fragment
Protocol: as §3
as §2, with “H₂SO₄.” for “H2504.”

[11] = molecular target: T1, G200 N-terminal neo-epitope peptide …; test: direct ELISA; proteins coated at 0.1 uM, BSA peptides at 1 ug/ml; antibody in 3-fold dilutions from 3000 ng/ml; blank reduced OD 450 nm
Protocol: as §3
as §2, with “H₂SO₄.” for “H2504.”

[12] = molecular target: T10, negative control peptide AATVGSLAGQPLQER-Acp-C (SEQ ID NO:53) conjugated to BSA (human, not fully specified (residue 17); printed as AATVGSLAGQPLQER-Acp-C; also: C-terminal Cys conjugated to BSA carrier); test: as above
T10 construct: BSA carrier; also called 192-206 BSA-conjugated peptide
T10 peptide: AATVGSLAGQPLQER[Ahx]C
Protocol: as §3
as §2, with “H₂SO₄.” for “H2504.”

[13] = molecular target: T2, recombinant full-length ApoE4 (aa …); test: as above; remark: listed apart in the source
Protocol: as §3
as §2, with “H₂SO₄.” for “H2504.”

[14] = molecular target: T6, L198 N-terminal neo-epitope peptide …; test: as above
Protocol: as §3
as §2, with “H₂SO₄.” for “H2504.”

T2 sequence (P02649 19-317 C130R limits assumed): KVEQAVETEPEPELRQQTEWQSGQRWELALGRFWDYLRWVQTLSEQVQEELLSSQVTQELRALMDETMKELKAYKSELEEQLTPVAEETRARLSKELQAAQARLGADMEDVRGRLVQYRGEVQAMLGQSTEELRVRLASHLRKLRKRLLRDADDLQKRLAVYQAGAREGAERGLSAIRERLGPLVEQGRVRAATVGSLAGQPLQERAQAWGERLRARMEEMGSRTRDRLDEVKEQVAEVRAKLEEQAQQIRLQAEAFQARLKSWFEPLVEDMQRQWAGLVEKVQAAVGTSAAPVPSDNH
T4 sequence (P02649 19-317): as the sequence (P02649 19-317 C130R limits assumed) above, with R112C counted along it
T9 sequence (P02649 other isoform, or with tags, fused parts or gaps limits assumed): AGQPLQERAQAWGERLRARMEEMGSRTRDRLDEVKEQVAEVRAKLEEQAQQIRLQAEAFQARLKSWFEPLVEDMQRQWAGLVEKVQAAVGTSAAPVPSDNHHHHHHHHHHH
T5 sequence (P02649 other isoform, or with tags, fused parts or gaps limits assumed): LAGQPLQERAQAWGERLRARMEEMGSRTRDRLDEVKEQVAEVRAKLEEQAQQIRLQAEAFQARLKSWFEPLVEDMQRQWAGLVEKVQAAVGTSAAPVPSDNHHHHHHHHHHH

Binder	binding result [1]	binding result [2]	binding result [3]	binding result [4]	EC50 [5] [µg/mL]	EC50 [6] [µg/mL]	binding result [7]	binding result [8]	EC50 [9] [µg/mL]	EC50 [10] [µg/mL]	binding result [11]	binding result [12]	binding result [13]	binding result [14]
B1	no binding (tested: 3000 ng/ml)	no binding (tested: 3000 ng/ml)	binds	no binding (tested: 2 ug/ml (text))	0.015	0.0247								
B2							no binding (tested: 2 ug/ml (text))	binds	0.0051	0.0202	no binding (tested: 3000 ng/ml)	no binding (tested: 3000 ng/ml)	no binding (tested: 3000 ng/ml)	no binding (tested: 3000 ng/ml)
B3							no binding (tested: 2 ug/ml (text))	binds	0.0046	0.0397	no binding (tested: 3000 ng/ml)	no binding (tested: 3000 ng/ml)	no binding (tested: 3000 ng/ml)	no binding (tested: 3000 ng/ml)
